# ± gives the standard deviation of the averaged measurements.
# Tests used:
# Saccharomyces cerevisiae [1] = experiment: protein stability index of tFT-peptide fusion (C-terminal peptide) (PSI (0-1 scale)); higher = more stable (slower turnover)
# Protocol: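 MPS profiling in S. cerevisiae of the tFT-X12 degron library: putative degron peptides plus stable controls, 12 aa, fused to the C-terminus of a sfGFP-mCherry timer. Cells are FACS-sorted into 8 mCherry/sfGFP bins and deep-sequenced. PSI runs from 0 (unstable) to 1 (stable). Backgrounds are wild type, das1Δ and doa10Δ at 30 °C, and wild type, das1Δ, cdc34-1 and cdc53-1 at 37 °C; 2-3 technical replicates each.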
# Saccharomyces cerevisiae [2] = experiment: as above; conditions: genetic background: wild type; temperature: 30 C
# [3] = genetic background: cdc34-1, temperature: 37 C
# [4] = genetic background: cdc53-1, temperature: 37 C
# [5] = genetic background: das1 deletion, temperature: 30 C
# [6] = genetic background: das1 deletion, temperature: 37 C
# [7] = genetic background: doa10 deletion, temperature: 30 C
# [8] = genetic background: wild type, temperature: 30 C
# [9] = genetic background: wild type, temperature: 37 C
# 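Also: PSI is a weighted mean of sequencing reads over stability bins, variants kept only with over 10 reads, mCherry proximal and sfGFP distal, peptide attached via GGGS linker.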
Sequence,protein stability index (Saccharomyces cerevisiae [1]; [3]),protein stability index (Saccharomyces cerevisiae [1]; [4]),protein stability index (Saccharomyces cerevisiae [1]; [5]),protein stability index (Saccharomyces cerevisiae [1]; [6]),protein stability index (Saccharomyces cerevisiae [1]; [7]),protein stability index (Saccharomyces cerevisiae [1]; [8]),protein stability index (Saccharomyces cerevisiae [1]; [9]),protein stability index (Saccharomyces cerevisiae [2])
ACGAGFIILLGL,0.641 ± 0.086,0.613 ± 0.014,0.524 ± 0.022,0.65 ± 0.015,0.571 ± 0.033,0.522 ± 0.019,0.633 ± 0.008,0.535 ± 0.077
ACIFDMMWFWLF,0.692 ± 0.068,0.721 ± 0.008,0.577 ± 0.034,0.75 ± 0.0093,0.427 ± 0.02,0.46 ± 0.02,0.573 ± 0.006,0.499 ± 0.032
ACLLCVCVESRE,0.531 ± 0.045,0.575 ± 0.053,0.414 ± 0.03,0.61303 ± 0.00036,0.38 ± 0.016,0.41 ± 0.015,0.5691 ± 0.0014,0.494 ± 0.013
AELLMLRIFFLF,0.281 ± 0.0063,0.48 ± 0.036,0.333 ± 0.019,0.491 ± 0.022,0.091 ± 0.0049,0.0708 ± 0.019,0.0944 ± 0.032,0.132 ± 0.027
AFFGIYLICFIV,0.118 ± 0.008,0.2044 ± 0.00042,0.225 ± 0.024,0.382 ± 0.014,0.1711 ± 0.001,0.125 ± 0.007,0.146 ± 0.013,0.207 ± 0.073
AFRFLAVCVGCG,0.144 ± 0.009,0.158 ± 0.013,0.218 ± 0.02,0.291 ± 0.0069,0.168 ± 0.0081,0.205 ± 0.018,0.24 ± 0.0071,0.263 ± 0.068
AFRSPLLMLLVL,0.336 ± 0.0057,0.381 ± 0.0068,0.32 ± 0.028,0.426 ± 0.01,0.32 ± 0.0039,0.262 ± 0.031,0.354 ± 0.0056,0.3468 ± 0.00084
ALFISLAIWNWS,0.0849 ± 0.024,0.154 ± 0.018,0.165 ± 0.027,0.318 ± 0.01,0.142 ± 0.011,0.139 ± 0.0085,0.2526 ± 0.00054,0.232 ± 0.012
AMRTIFFPAFVS,0.543 ± 0.033,0.708 ± 0.0082,0.655 ± 0.0093,0.743 ± 0.018,0.158 ± 0.014,0.157 ± 0.013,0.222 ± 0.0069,0.28 ± 0.075
APGLLPPCLLVV,0.374 ± 0.033,0.387 ± 0.013,0.307 ± 0.045,0.458 ± 0.014,0.263 ± 0.0047,0.3 ± 0.02,0.389 ± 0.0066,–
APLSPLLPPFLC,0.693 ± 0.036,0.729 ± 0.012,0.661 ± 0.024,0.74816 ± 0.00015,0.3485 ± 0.0016,0.369 ± 0.05,0.595 ± 0.013,0.391 ± 0.088
APPPLFLIVLHL,0.469 ± 0.0062,0.565 ± 0.0062,0.399 ± 0.036,0.604 ± 0.028,0.324 ± 0.019,0.3 ± 0.011,0.521 ± 0.026,0.424 ± 0.018
APTMAIIVVHVR,0.237 ± 0.022,0.291 ± 0.013,0.22 ± 0.034,0.3582 ± 0.0027,0.1859 ± 0.0016,0.207 ± 0.036,0.359 ± 0.019,0.3059 ± 0.0021
ARKIGKVIPKLG,0.686 ± 0.021,0.732 ± 0.037,0.634 ± 0.043,0.737 ± 0.02,0.292 ± 0.0097,0.341 ± 0.039,0.599 ± 0.011,0.43 ± 0.027
ASLSSSRPPLLP,0.685 ± 0.053,0.752 ± 0.02,0.658 ± 0.025,0.7114 ± 0.0024,0.644 ± 0.02,0.648 ± 0.014,0.6962 ± 0.0011,0.746 ± 0.051
ASLVGGVLLVVV,0.495 ± 0.0051,0.5 ± 0.012,0.346 ± 0.032,0.535 ± 0.0056,0.313 ± 0.017,0.352 ± 0.022,0.502 ± 0.022,0.454 ± 0.011
AWPGRLWYFWLA,0.655 ± 0.028,0.7846 ± 0.0056,0.637 ± 0.018,0.755 ± 0.011,0.189 ± 0.0052,0.215 ± 0.025,0.4106 ± 0.003,0.251 ± 0.14

Sequence,protein stability index (Saccharomyces cerevisiae [1]; [3]),protein stability index (Saccharomyces cerevisiae [1]; [4]),protein stability index (Saccharomyces cerevisiae [1]; [5]),protein stability index (Saccharomyces cerevisiae [1]; [6]),protein stability index (Saccharomyces cerevisiae [1]; [7]),protein stability index (Saccharomyces cerevisiae [1]; [8]),protein stability index (Saccharomyces cerevisiae [1]; [9]),protein stability index (Saccharomyces cerevisiae [2])
AYCGGRNKCTTE,0.689 ± 0.015,0.711 ± 0.021,0.644 ± 0.034,0.744 ± 0.013,0.659 ± 0.014,0.643 ± 0.011,0.712 ± 0.0078,0.701 ± 0.0081
AYVAPRRALMCS,0.422 ± 0.02,0.495 ± 0.019,0.352 ± 0.031,0.517 ± 0.011,0.259 ± 0.011,0.281 ± 0.018,0.406 ± 0.017,0.421 ± 0.069
CEERVKSRLKQN,0.619 ± 0.011,0.68 ± 0.013,0.653 ± 0.043,0.728 ± 0.014,0.174 ± 0.012,0.18 ± 0.031,0.307 ± 0.022,0.226 ± 0.082
CFCLFVFFISSC,0.2112 ± 0.00091,0.414 ± 0.015,0.223 ± 0.033,0.459 ± 0.015,0.19 ± 0.019,0.233 ± 0.019,0.397 ± 0.015,0.362 ± 0.057
CFCSFQFVRLWV,0.593 ± 0.0065,0.6165 ± 0.0048,0.49 ± 0.028,0.6443 ± 0.0064,0.455 ± 0.03,0.444 ± 0.011,0.58 ± 0.0096,0.452 ± 0.062
CFFFPCFSFRFL,0.39 ± 0.0076,0.448 ± 0.012,0.416 ± 0.024,0.528 ± 0.015,0.377 ± 0.02,0.296 ± 0.011,0.453 ± 0.033,0.342 ± 0.041
CFFICGVFVFLM,0.21 ± 0.07,0.338 ± 0.029,0.257 ± 0.03,0.435 ± 0.014,0.229 ± 0.01,0.244 ± 0.034,0.4088 ± 0.0015,0.3651 ± 0.00098
CFFILSLMVVVI,0.0733 ± 0.0068,0.16 ± 0.027,0.12 ± 0.029,0.229 ± 0.0071,0.0944 ± 0.0056,0.0999 ± 0.03,0.183 ± 0.0091,0.194 ± 0.054
CFFLSFNVFRLF,0.465 ± 0.059,0.559 ± 0.011,0.498 ± 0.034,0.633 ± 0.022,0.107 ± 0.0097,0.114 ± 0.033,0.113 ± 0.0019,0.148 ± 0.05
CFVISVLFFFVG,0.292 ± 0.011,0.491 ± 0.035,0.288 ± 0.035,0.467 ± 0.015,0.284 ± 0.024,0.286 ± 0.013,0.436 ± 0.03,0.444 ± 0.025
CFVLVVCIPVMV,0.2 ± 0.0041,0.247 ± 0.033,0.198 ± 0.023,0.3457 ± 0.0017,0.18 ± 0.009,0.207 ± 0.024,0.3279 ± 0.0019,0.31 ± 0.035
CFVQVGGLVKIS,0.66 ± 0.045,0.725 ± 0.042,0.61 ± 0.012,0.731 ± 0.033,0.248 ± 0.02,0.293 ± 0.036,0.57 ± 0.04,0.412 ± 0.012
CFVSFLHLLYFS,0.347 ± 0.044,0.341 ± 0.025,0.35 ± 0.025,0.4666 ± 8.3e-05,0.506 ± 0.0063,0.296 ± 0.024,0.425 ± 0.0054,0.362 ± 0.015
CGFVCGLCLCRV,0.552 ± 0.052,0.586 ± 0.016,0.364 ± 0.04,0.605 ± 0.042,0.345 ± 0.023,0.381 ± 0.031,0.572 ± 0.013,0.484 ± 0.0062
CGFVFFVLVVFW,0.112 ± 0.0055,0.17 ± 0.0063,0.12 ± 0.033,0.229 ± 0.0079,0.15 ± 0.0054,0.114 ± 0.025,0.193 ± 0.026,0.15 ± 0.035
CGQIAFLGIAVK,0.479 ± 0.0077,0.504 ± 0.043,0.317 ± 0.042,0.551 ± 0.024,0.289 ± 0.015,0.323 ± 0.029,0.541 ± 0.0077,0.4722 ± 0.0006

# From the supplement of paper PMC10724198
